# Results published in US20090191228A1.
# Experiments:
# [1] = biological target: dOVA-1 (ovalbumin misfolded by HCl treatment, 40 min 37 C, neutralized) (chicken) (UniProt P01012); experiment: ELISA, immobilized OVA forms
# [2] = biological target: nOVA (non-treated ovalbumin, 1 mg/ml in PBS) (chicken) (UniProt P01012); experiment: ELISA, immobilized OVA forms, Fn F4-5 in solution; normalized to nOVA
# [3] = biological target: cdH5-0 (dH5-0 supernatant after 10 min at 16,000-18,000*g) (influenza virus H5N1 strain A/Vietnam/1203/04); experiment: ELISA, immobilized H5 forms, Fn F4-5 in solution; normalized to cdH5-0
# [4] = biological target: dH5-I (cdH5-0 misfolded by heat cycling at pH 7) (influenza virus H5N1 strain A/Vietnam/1203/04); experiment: as above
# [5] = biological target: dH5-II (cdH5-0 misfolded by heat cycling at pH 2) (influenza virus H5N1 strain A/Vietnam/1203/04); experiment: as above
# [6] = biological target: dH5-III (cdH5-0 incubated about 16 h at 47.5 C) (influenza virus H5N1 strain A/Vietnam/1203/04); experiment: as above
# [7] = biological target: fdH5-0 (ultrafiltrated dH5-0, flow-through of a 1,000 kDa cut-off filter) (influenza virus H5N1 strain A/Vietnam/1203/04); experiment: as above
# [8] = biological target: cdH5-0 (dH5-0 supernatant after 10 min at 16,000-18,000*g) (influenza virus H5N1 strain A/Vietnam/1203/04)
# [9] = biological target: dH5-II (cdH5-0 misfolded by heat cycling at pH 2) (influenza virus H5N1 strain A/Vietnam/1203/04)
# [10] = biological target: fdH5-0 (ultrafiltrated dH5-0, flow-through of a 1,000 kDa cut-off filter) (influenza virus H5N1 strain A/Vietnam/1203/04)
substance,measurement,setting,value
"monoclonal anti-OVA IgG (A6075, Sigma) (antibody)","Scaled antibody binding (relative affinity kD, a.u.)",[1],20.8 a.u.
fourth and fifth finger domain of fibronectin (Fn F4-5) (from UniProt P02751 183-275),"Normalized affinity, kD (%)",[2],100%
same,"Normalized affinity, kD (%)",[3],100%
same,"Normalized affinity, kD (%)",[4],0%
same,"Normalized affinity, kD (%)",[5],88%
same,"Normalized affinity, kD (%)",[6],6%
same,"Normalized affinity, kD (%)",[7],69%
tissue type plasminogen activator (tPA) (from UniProt P00750 36-562) (enzyme),Bmax,[8],0.36
same,Kd,[8],102 nM
same,Bmax,[9],0.07
same,Kd,[9],19 nM
same,Bmax,[10],0.37
same,Kd,[10],342 nM
